For this assay, the target named is T1, Q3T9S7_MOUSE (mouse, UniProt Q3T9S7 22-1179).
T1 construct: also called tr|Q3T9S7|Q3T9S7_MOUSE
T1 sequence: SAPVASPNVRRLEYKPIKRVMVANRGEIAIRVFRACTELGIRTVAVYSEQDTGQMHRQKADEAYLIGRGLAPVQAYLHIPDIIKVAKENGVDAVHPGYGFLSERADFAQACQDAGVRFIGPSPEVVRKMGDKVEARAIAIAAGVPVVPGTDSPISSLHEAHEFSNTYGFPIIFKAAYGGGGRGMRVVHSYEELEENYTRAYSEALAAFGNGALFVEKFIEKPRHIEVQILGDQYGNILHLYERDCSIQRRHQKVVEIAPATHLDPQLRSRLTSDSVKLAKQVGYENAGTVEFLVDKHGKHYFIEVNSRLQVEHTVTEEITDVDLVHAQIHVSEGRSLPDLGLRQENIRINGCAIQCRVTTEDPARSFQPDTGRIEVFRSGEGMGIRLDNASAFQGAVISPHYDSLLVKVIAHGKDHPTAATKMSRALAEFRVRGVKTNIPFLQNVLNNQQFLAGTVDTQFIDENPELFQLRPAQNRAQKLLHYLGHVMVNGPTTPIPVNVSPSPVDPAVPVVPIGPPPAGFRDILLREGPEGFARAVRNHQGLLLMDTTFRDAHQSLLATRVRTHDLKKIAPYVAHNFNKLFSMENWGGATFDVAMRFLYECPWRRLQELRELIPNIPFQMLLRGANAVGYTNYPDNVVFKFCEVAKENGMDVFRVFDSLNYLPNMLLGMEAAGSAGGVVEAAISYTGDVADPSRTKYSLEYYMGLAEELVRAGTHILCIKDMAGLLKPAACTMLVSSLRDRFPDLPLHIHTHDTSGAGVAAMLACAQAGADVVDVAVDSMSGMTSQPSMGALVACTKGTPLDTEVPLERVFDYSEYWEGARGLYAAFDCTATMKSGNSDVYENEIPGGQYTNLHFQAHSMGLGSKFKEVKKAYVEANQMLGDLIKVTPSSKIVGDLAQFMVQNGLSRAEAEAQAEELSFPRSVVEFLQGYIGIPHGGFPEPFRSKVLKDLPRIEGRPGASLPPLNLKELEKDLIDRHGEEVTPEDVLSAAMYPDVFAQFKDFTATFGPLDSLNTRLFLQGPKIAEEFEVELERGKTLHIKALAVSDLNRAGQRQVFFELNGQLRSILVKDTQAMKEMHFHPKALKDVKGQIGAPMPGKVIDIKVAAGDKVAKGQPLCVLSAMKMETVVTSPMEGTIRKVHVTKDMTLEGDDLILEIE
Briefly: anti-His co-IP of rCHI3L1 from Kupffer cell lysate, MS; listed under 'proteins bound to CHI3L1'. Summed up:
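Kupffer cells from WT mice 3 h after APAP were incubated with His-tagged rCHI3L1; lysate immunoprecipitated with anti-His antibody and the pulled-down fraction identified by LC/MS.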

These results are taken from patent US20240294670A1 (University of Texas, published 2024).

B1: recombinant mouse CHI3L1 (ligand)
chain: not shown
notes: His-tagged; also called mCHI3L1; mChi3l1
As to B1, the binding result was “binds”.
